{"source": "paper PMC6372703", "about": "“A thermostable laccase from Thermus sp. 2.9 and its potential for delignification of Eucalyptus biomass” (AMB Express, 2019)", "test_system": "CCn1c(=NN=c2sc3cc(S(=O)(=O)O)ccc3n2CC)sc2cc(S(=O)(=O)O)ccc21", "assay": "purified protein", "conditions": "20 mM sodium acetate, pH 5, 60 °C, 1 mM CuSO4", "data": [{"substance": "LAC_2.9 (Thermus sp. 2.9)", "values": [{"measurement": "Km", "result": "590 ± 80", "unit": "µM"}, {"measurement": "kcat", "result": "1 ± 0.04", "unit": "s⁻¹"}, {"measurement": "kcat/Km", "result": "1700 ± 200", "unit": "M⁻¹ s⁻¹"}]}]}
